The values that follow come from patent publication US20240409614.

Substitutions are numbered along the chain they refer to.

In one series the target is T1, A1AT-M351V/L353S/M358V.
T1 chain: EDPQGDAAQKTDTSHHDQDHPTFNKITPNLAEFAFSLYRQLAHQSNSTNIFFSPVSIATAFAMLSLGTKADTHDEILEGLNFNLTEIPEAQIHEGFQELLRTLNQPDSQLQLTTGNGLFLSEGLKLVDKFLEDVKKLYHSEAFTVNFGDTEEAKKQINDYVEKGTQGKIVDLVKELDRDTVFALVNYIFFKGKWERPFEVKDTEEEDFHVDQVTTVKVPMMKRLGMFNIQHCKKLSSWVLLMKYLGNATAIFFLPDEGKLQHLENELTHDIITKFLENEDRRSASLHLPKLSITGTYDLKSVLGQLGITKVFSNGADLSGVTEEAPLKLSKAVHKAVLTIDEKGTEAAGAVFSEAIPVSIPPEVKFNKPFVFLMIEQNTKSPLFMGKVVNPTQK

For series [1], the target named is wildtype alpha-1-antitrypsin (A1AT).
The next series deals with T2, A1AT-M351V/L353A/M358V.
T2 chain: T1 chain with S353A

The target in the next series is T3, A1AT-M351V/L353T/M358V.
T3 chain: T1 chain with S353T

B1: MMP-7 (ProSpec, cat #enz-271) (protein)
chain: YSLFPNSPKWTSKVVTYRIVSYTRDLPHITVDRLVSKALNMWGKEIPLHFRKVVWGTADIMIGFARGAHGDSYPFDGPGNTLAHAFAPGTGLGGDAHFDEDERWTDGSSLGINFLYAATHELGHSLGMGHSSDPNAVMYPTYGNGDPQNFKLSQDDIKGIQKLYGKRSNSRKK
In the case of B1, the cleaved (%) after MMP-7 treatment (SDS-PAGE) was determined as 0% in the series with A1AT-M351V/L353S/M358V; 96% in series [1]; 0% in the series with A1AT-M351V/L353A/M358V; 5% in the series with A1AT-M351V/L353T/M358V; 63% with A1AT-M351V/M358V. Besides, the non-cleaved (%) after MMP-7 treatment (SDS-PAGE) with A1AT-M351V/L353S/M358V stood at 100%; in series [1] it was 4%; with A1AT-M351V/L353A/M358V it was 100%; with A1AT-M351V/L353T/M358V, 95%; in the series with A1AT-M351V/M358V, 37%. The “proteolytic degradation by MMP-7 (SDS-PAGE, FIG. 4)” value with A1AT-L353A/M358V is “A0025 showed as little degradation by MMP-7 as A0028 and A0031”; in the series with A1AT-M351V/L353A it was “A0025 showed as little degradation by MMP-7 as A0028 and A0031”; in the series with A1AT-L353A, “A0025 showed as little degradation by MMP-7 as A0028 and A0031”.

B2: MMP-9 (ProSpec, cat #enz-438) (protein)
chain: APRQRQSTLVLFPGDLRTNLTDRQLAEEYLYRYGYTRVAEMRGESKSLGPALLLLQKQLSLPETGELDSATLKAMRTPRCGVPDLGRFQTFEGDLKWHHHNITYWIQNYSEDLPRAVIDDAFARAFALWSAVTPLTFTRVYSRDADIVIQFGVAEHGDGYPFDGKDGLLAHAFPPGPGIQGDAHFDDDELWSLGKGVVVPTRFGNADGAACHFPFIFEGRSYSACTTDGRSDGLPWCSTTANYDTDDRFGFCPSERLYTQDGNADGKPCQFPFIFQGQSYSACTTDGRSDGYRWCATTANYDRDKLFGFCPTRADSTVMGGNSAGELCVFPFTFLGKEYSTCTSEGRGDGRLWCATTSNFDSDKKWGFCPDQGYSLFLVAAHEFGHALGLDHSSVPEALMYPMYRFTEGPPLHKDDVNGIRHLYGPRPEPEPRPPTTTTPQPTAPPTVCPTGPPTVHPSERPTAGPTGPPSAGPTGPPTAGPSTATTVPLSPVDDACNVNIFDAIAEIGNQLYLFKDGKYWRFSEGRGSRPQGPFLIADKWPALPRKLDSVFEERLSKKLFFFSGRQVWVYTGASVLGPRRLDKLGLGADVAQVTGALRSGRGKMLLFSGRRLWRFDVKAQMVDPRSASEVDRMFPGVPLDTHDVFQYREKAYFCQDRFYWRVSSRSELNQVDQVGYVTYDILQCPED
Turning to B2, the cleaved (%) after MMP-9 treatment (SDS-PAGE) with A1AT-M351V/L353S/M358V came to 0%; in series [1], 89%; with A1AT-M351V/L353A/M358V, 6%; with A1AT-M351V/L353T/M358V it was 0%; in the series with A1AT-M351V/M358V, 25%. Further, the non-cleaved (%) after MMP-9 treatment (SDS-PAGE) came to 100% with A1AT-M351V/L353S/M358V; 11% in series [1]; 94% with A1AT-M351V/L353A/M358V; 100% in the series with A1AT-M351V/L353T/M358V; 75% with A1AT-M351V/M358V.
